According to patent US20240101640A1 (CSL BEHRING, published 2024):

B3: heme-hemopexin complex (human plasma derived hemopexin saturated with hemin) (ligand)
chain: TPLPPTSAHGNVAEGETKPDPDVTERCSDGWSFDATTLDDNGTMLFFKGEFVWKSHKWDRELISERWKNFPSPVDAAFRQGHNSVFLIKGDKVWVYPPEKKEKGYPKLLQDEFPGIPSPLDAAVECHRGECQAEGVLFFQGDREWFWDLATGTMKERSWPAVGNCSSALRWLGRYYCFQGNQFLRFDPVRGEVPPRYPRDVRDYFMPCPGRGHGHRNGTGHGNSTHHGPEYMRCSPHLVLSALTSDNHGATYAFSGTHYWRLDTSRDGWHSWPIAHQWPQGPSAVDAAFSWEEKLYLVQGTQVYVFLTKGGYTLVSGYPKRLEKEVGTPHGIILDSVDAAFICPGSSRLHIMAGRRLWWLDLKSGAQATWTELPWPHEKVDGALCMEKSLGPNSCSANGPGLYLIHGPNLYCYSDVEKLNAAKALPQPQNVTSLLGCTH
modifications: heme (hemin) bound non-covalently in a 1:1 ratio
notes: also called heme-hpx complex; heme-hx complex

Experiments:
[1] = target: B3; experiment: BLI (Octet), LRP1.1 captured on anti-Penta-His biosensor, heme-hpx complex as analyte at 0.312-2.5 µM [LRP1.1]
Description: (§1) Individual LRP1 domains were immobilized on the biosensor surface. After baseline recording four concentration of heme-hpx complexes were tested (2.5, 1.25, 0.625 and 0.312 μM). For LRP1.3 the reference subtracted and processed kinetic dataset was globally fitted using a 1:1 binding model. Heme-hpx is shown in red curves, fitted curve as solid black line. LRP1.1, LRP1.2, LRP1.4 and LRP1.5 were not fitted.
(§2) As described above, anti-penta His antibody pre-coated biosensors (Cat N°: 18-5120, ForteBio, TechNote 43: Anti-Penta-HIS (HIS1K) biosensors for label-free analysis of HIS-tagged proteins, 2019) were used. The different LRP1 domains were immobilized at a concentration of 15 μg/mL in 10× kinetic buffer (PBS, 0.1% BSA, 0.02% Tween20). Heme-Hpx complex was diluted in 10× kinetic buffer (PBS, 0.1% BSA, 0.02% Tween20). The association and dissociation kinetics of heme-hemopexin complex, were performed at concentrations of 2.5, 1.25, 0.625 and 0.3125 μM. A reference control was included in every experiment (sensor loaded with ligand without analyte). Data was acquired on an OctetRED96 (FortéBio) at 30° C. with the following settings:
(§3) To investigate and determine, which of the LRP1 domains bind the heme-hpx complex, each of the domains were tethered on biosensors (HIS1K; anti-penta-His) via the expressed His-tag.

[2] = target: B3; experiment: BLI (Octet), LRP1.2 captured on anti-Penta-His biosensor, heme-hpx complex as analyte at 0.312-2.5 µM [LRP1.2]
Description: as §1, §2, §3

[3] = target: T1, HuLRP1(1-24)-FLAG-HuLRP1(2481-2942)-8His (huLRP1 soluble minireceptor, ligand binding domain III) (human, UniProt Q07954 2481-2942); experiment: SPR, LRP1.3 tethered on NTA chip, heme-hpx complex batch TO341022BM (“New”), 1:1 steady state fit, N = 1
T1 construct: Made in ExpiCHO-S cells; also called LRP1.3; LRP1 domain III

[4] = target: T2, HuLRP1(1-24)-FLAG-HuLRP1(3293-3783)-8His (huLRP1 soluble minireceptor, ligand binding domain IV) (human, UniProt Q07954 3293-3783); experiment: BLI (Octet), LRP1.4 captured on anti-Penta-His biosensor, heme-hpx complex as analyte at 0.312-2.5 µM [LRP1.4]
T2 construct: also called LRP1.4; LPR1 domain IV
Description: as §1, §2, §3

[5] = target: T1, HuLRP1(1-24)-FLAG-HuLRP1(2481-2942)-8His …; experiment: SPR (Biacore), LRP1.3 tethered on NTA chip, heme-hpx complex batch TO411122 (as titled on the sheet) as analyte at 0.62-20 µM, steady state 1:1 fit
Description: (§4) Heme-hpx complex was injected in duplicate at concentrations ranging from 0.62 to 20 μM in 2-fold dilution series over 30 seconds. The dissociation was monitored for 60 seconds. No regeneration step was required between cycles since the complex dissociated fully. Sensogram data from active surface (flow cell 4) were double referenced by subtraction of data from reference surface (flow cells 3) and blank injections. Sensogram data were fit to a 1:1 steady state model.

[6] = target: T1, HuLRP1(1-24)-FLAG-HuLRP1(2481-2942)-8His …; experiment: SPR, LRP1.3 tethered on NTA chip (capture cross link), heme-hpx (batch TO411122) 0.62-20 µM, 1:1 steady state fit, run 3
Description: as §4
(§5) In a next step and as mentioned above an alternative assay setup was developed as illustrated in FIG. 7A.

[7] = target: T1, HuLRP1(1-24)-FLAG-HuLRP1(2481-2942)-8His …; experiment: SPR, LRP1.3 tethered on NTA chip (capture cross link), heme-hpx (batch TO411122) 0.62-20 µM, 1:1 steady state fit, run 2
Description: as §4, §5

[8] = target: T1, HuLRP1(1-24)-FLAG-HuLRP1(2481-2942)-8His …; experiment: SPR (Biacore), LRP1.3 tethered on NTA chip, heme-hpx complex ("aged", batch TO342022B by the legend) as analyte at 0.62-20 µM, steady state 1:1 fit
Description: as §4

[9] = target: T1, HuLRP1(1-24)-FLAG-HuLRP1(2481-2942)-8His …; experiment: SPR, LRP1.3 tethered on NTA chip (capture cross link), heme-hpx (batch TO411122), 1:1 steady state fit, mean of N = 3
[10] = target: T3, HuLRP1 (3332-3779)-8His (second ligand binding domain IV construct) (human, UniProt Q07954 3332-3779); experiment: BLI (Octet), LRP1.5 captured on anti-Penta-His biosensor, heme-hpx complex as analyte at 0.312-2.5 µM [LRP1.5]
T3 construct: Any N-terminal residues left from a signal peptide or tag are not described; also called LRP1.5; LPR1 domain IV (LRP1.5)
Description: as §1, §2, §3

[11] = target: T1, HuLRP1(1-24)-FLAG-HuLRP1(2481-2942)-8His …; experiment: BLI (OctetRED96, 30 °C), LRP1.3 captured on anti-penta-His biosensor, heme-hpx (batch TO294001) 2.5-0.312 µM, global 1:1 fit
Description: as §1
as §2, with “settings: […]” for “settings:”

[12] = target: T1, HuLRP1(1-24)-FLAG-HuLRP1(2481-2942)-8His …; experiment: SPR (Biacore), LRP1.3 tethered on NTA chip, heme-hpx complex ("new", batch TO341022BM by the legend) as analyte at 0.62-20 µM, steady state 1:1 fit
Description: as §4

[13] = target: T1, HuLRP1(1-24)-FLAG-HuLRP1(2481-2942)-8His …; experiment: SPR (Biacore, 37 °C), heme-hpx (batch TO411122) captured by anti-hemopexin polyclonal antibody on CM5, LRP1.3 0.312-20 µM as analyte, kinetic fit (not optimal)
[14] = target: T1, HuLRP1(1-24)-FLAG-HuLRP1(2481-2942)-8His …; experiment: SPR, LRP1.3 tethered on NTA chip (capture cross link), heme-hpx (batch TO411122) 0.62-20 µM, 1:1 steady state fit, run 1
Description: as §4

[15] = target: T1, HuLRP1(1-24)-FLAG-HuLRP1(2481-2942)-8His …; experiment: SPR, LRP1.3 tethered on NTA chip, heme-hpx complex batch T0342022C as printed, 1:1 steady state fit, N = 1
[16] = target: T1, HuLRP1(1-24)-FLAG-HuLRP1(2481-2942)-8His …; experiment: SPR, LRP1.3 tethered on NTA chip, heme-hpx complex batch TO342022B (“Aged”), 1:1 steady state fit, N = 1
Description: as §4

T1 sequence (Q07954 other isoform, or with tags, fused parts or gaps): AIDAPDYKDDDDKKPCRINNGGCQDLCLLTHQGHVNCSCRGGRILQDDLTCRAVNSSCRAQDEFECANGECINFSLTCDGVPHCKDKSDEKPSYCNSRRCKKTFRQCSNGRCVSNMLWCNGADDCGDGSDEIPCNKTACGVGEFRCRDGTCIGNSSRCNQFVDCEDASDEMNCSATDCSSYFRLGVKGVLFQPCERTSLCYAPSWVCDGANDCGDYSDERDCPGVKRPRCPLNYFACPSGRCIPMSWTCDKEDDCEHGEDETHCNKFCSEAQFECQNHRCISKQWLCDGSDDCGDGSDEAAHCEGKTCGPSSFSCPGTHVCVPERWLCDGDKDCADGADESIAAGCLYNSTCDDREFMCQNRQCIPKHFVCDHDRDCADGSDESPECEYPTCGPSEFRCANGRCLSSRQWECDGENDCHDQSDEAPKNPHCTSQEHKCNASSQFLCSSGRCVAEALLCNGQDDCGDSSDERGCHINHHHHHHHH
T2 sequence (Q07954 other isoform, or with tags, fused parts or gaps): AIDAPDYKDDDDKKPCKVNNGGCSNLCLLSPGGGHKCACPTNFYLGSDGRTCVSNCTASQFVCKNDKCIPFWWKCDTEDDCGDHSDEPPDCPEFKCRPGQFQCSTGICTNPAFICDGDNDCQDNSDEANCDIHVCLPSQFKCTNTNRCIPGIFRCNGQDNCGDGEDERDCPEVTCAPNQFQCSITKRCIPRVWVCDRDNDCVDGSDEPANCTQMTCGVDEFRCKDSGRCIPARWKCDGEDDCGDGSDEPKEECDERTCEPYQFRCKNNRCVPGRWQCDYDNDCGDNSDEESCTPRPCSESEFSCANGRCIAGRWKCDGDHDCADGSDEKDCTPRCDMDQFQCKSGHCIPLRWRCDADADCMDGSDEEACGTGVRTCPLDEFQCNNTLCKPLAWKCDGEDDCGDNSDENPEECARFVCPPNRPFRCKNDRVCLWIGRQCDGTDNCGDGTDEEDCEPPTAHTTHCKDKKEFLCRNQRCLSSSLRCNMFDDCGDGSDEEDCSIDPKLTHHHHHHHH
T3 sequence (Q07954 other isoform, or with tags, fused parts or gaps): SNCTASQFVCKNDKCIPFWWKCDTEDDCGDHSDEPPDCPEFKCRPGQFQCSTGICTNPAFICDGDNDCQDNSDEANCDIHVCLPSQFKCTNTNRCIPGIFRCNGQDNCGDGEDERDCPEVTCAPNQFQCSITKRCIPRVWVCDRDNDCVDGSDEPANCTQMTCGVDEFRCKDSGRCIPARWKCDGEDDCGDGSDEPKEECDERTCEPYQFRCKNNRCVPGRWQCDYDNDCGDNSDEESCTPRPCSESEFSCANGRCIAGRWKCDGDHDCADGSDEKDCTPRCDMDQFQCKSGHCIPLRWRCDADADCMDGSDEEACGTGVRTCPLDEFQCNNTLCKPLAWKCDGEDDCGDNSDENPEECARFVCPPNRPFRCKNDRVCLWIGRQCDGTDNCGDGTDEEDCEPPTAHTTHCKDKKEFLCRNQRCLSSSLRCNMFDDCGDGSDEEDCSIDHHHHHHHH

B1: HuLRP1(1-24)-FLAG-HuLRP1(25-113)-8His (huLRP1 soluble minireceptor, ligand binding domain I) (receptor)
chain: AIDAPDYKDDDDKKKTCSPKQFACRDQITCISKGWRCDGERDCPDGSDEAPEICPQSKAQRCQPNEHNCLGTELCVPMSRLCNGVQDCMDGSDEGPHCRELQGHHHHHHHH
notes: also called LPR1 domain I; LRP1 domain 1
- binding result [1]: no binding (tested: 2.5 µM heme-hpx complex)

B2: HuLRP1(1-24)-FLAG-HuLRP1(806-1183)-8His (huLRP1 soluble minireceptor, ligand binding domain II) (receptor)
chain: AIDAPDYKDDDDKKKCRVNNGGCSSLCLATPGSRQCACAEDQVLDADGVTCLANPSYVPPPQCQPGEFACANSRCIQERWKCDGDNDCLDNSDEAPALCHQHTCPSDRFKCENNRCIPNRWLCDGDNDCGNSEDESNATCSARTCPPNQFSCASGRCIPISWTCDLDDDCGDRSDESASCAYPTCFPLTQFTCNNGRCININWRCDNDNDCGDNSDEAGCSHSCSSTQFKCNSGRCIPEHWTCDGDNDCGDYSDETHANCTNQATRPPGGCHTDEFQCRLDGLCIPLRWRCDGDTDCMDSSDEKSCEGVTHVCDPSVKFGCKDSARCISKAWVCDGDNDCEDNSDEENCESLACRPPSHPCANNTSVCLPPDKLCDGNDDCGDGSDEGELCDHHHHHHHH
notes: also called LRP1.2; LPR1 domain II
- binding result [2]: no binding (tested: 2.5 µM heme-hpx complex)

Binder: B3
- Kd [3]: 1410 nM
- binding result [4]: no binding (tested: 2.5 µM heme-hpx complex)
- Kd [5]: 1400 nM
- Kd [6]: 2630 nM
- Kd [7]: 2610 nM
- Kd [8]: 1400 nM
- Kd [9]: 2620 nM
- binding result [10]: no binding (tested: 2.5 µM heme-hpx complex)
- Kd [11]: 1460 nM
- koff [11]: 0.0555 s⁻¹
- kon [11]: 37900 M⁻¹ s⁻¹
- Kd [12]: 1400 nM
- Kd [13]: ~2000 nM
- Kd [14]: 2620 nM
- Kd [15]: 1340 nM
- Kd [16]: 1350 nM
